Molecular target: SARS-CoV-2 S1 WT (in-house) (SARS-CoV-2, UniProt P0DTC2)
Assay: SPR

B1: REGN10987 (antibody, V domains shown)
VH: QVQLVESGGGVVQPGRSLRLSCAASGFTFSNYAMYWVRQAPGKGLEWVAVISYDGSNKYYADSVKGRFTISRDNSKNTLYLQMNSLRTEDTAVYYCASGSDYGDYLLVYWGQGTLVTVSS
VL: QSALTQPASVSGSPGQSITISCTGTSSDVGGYNYVSWYQQHPGKAPKLMIYDVSKRPSGVSNRFSGSKSGNTASLTISGLQSEDEADYYCNSLTSISTWVFGGGTKLTVL
  binding result: binds
